Series [1] addresses T1, urokinase (Homo sapiens, UniProt P00749). In words: Kinetics of urokinase activation of plasminogen species (S-2251 coupled assay, method of Wohl et al.). The class given is biochemical. Conditions: 5.8 nM urokinase, 1 mM S-2251, 37° C., pH 7.5. The method, then: Increases in absorbance were monitored at 405 nm.
Activation of delta-plasminogen to delta-plasmin was complete within 3 minutes under these conditions. Very similar results were obtained with tPA and streptokinase.
Data were fit to a Michaelis-Menten kinetic model using Lineweaver-Burk analysis, resulting in the values below: […]

Series [2] concerns the target T1, urokinase. Conditions: urokinase activation; Wohl et al. 1980; read-out: Km, literature value; cited from earlier work.
The next series addresses T2, α2-macroglobulin (Homo sapiens, UniProt P01023).
T2 sequence (P01023 24-1474): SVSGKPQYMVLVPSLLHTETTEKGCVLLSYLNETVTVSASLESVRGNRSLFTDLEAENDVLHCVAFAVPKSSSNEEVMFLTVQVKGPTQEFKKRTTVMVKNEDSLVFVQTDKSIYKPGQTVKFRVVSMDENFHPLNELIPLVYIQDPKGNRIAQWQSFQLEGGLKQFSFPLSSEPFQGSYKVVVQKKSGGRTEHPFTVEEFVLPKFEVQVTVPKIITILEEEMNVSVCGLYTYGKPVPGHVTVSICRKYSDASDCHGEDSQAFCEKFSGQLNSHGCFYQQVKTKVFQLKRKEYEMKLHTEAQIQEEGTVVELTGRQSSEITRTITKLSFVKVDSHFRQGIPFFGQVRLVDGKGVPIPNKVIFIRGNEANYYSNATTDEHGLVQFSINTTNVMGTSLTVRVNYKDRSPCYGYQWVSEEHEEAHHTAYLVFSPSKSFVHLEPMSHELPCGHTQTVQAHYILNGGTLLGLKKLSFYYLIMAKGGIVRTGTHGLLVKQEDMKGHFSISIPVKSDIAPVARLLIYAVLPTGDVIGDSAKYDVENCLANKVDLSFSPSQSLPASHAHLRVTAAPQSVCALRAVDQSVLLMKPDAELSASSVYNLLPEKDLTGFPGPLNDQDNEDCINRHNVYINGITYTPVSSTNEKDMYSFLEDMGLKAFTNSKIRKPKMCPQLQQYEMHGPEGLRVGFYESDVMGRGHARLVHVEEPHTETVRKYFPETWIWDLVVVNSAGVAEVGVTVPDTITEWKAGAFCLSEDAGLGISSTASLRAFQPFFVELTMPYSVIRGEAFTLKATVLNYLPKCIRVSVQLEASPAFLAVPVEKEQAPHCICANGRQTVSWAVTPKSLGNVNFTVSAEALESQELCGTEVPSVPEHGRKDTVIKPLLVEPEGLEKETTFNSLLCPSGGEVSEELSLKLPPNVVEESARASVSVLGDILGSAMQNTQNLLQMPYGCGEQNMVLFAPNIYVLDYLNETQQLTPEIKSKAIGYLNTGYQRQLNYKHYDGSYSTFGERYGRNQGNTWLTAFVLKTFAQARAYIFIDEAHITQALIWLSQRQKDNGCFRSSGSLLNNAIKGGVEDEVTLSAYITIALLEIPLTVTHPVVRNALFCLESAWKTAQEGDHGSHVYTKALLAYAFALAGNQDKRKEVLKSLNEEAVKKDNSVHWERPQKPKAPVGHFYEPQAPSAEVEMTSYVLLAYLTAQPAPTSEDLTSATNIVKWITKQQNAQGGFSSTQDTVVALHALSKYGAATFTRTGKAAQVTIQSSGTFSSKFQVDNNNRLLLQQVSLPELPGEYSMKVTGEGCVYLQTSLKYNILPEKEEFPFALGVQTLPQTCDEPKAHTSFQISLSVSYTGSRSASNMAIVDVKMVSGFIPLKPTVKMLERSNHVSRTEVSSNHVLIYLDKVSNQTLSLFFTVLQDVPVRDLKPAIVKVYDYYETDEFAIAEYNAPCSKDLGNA
The series is described as follows: Rate of inhibition by α2-macroglobulin (method of Anonick et al.). The class given is biochemical. Conditions: 22° C. in PBS buffer, pH 7.4. The method, then:
The rate of inhibition of delta-plasmin by α2-macroglobulin was measured using the method of Anonick et al. (Anonick, P., et al., Thrombosis Res. 59:449-462 (1990)).
(§1) Literature values are taken from Anonick, et al., Thrombosis Res. 59:449 (1990). All rates were measured according to the methods published in Anonick, et al.

Series [3] has as its target T3, α2-antiplasmin (Homo sapiens, UniProt P08697).
T3 sequence (P08697 40-491): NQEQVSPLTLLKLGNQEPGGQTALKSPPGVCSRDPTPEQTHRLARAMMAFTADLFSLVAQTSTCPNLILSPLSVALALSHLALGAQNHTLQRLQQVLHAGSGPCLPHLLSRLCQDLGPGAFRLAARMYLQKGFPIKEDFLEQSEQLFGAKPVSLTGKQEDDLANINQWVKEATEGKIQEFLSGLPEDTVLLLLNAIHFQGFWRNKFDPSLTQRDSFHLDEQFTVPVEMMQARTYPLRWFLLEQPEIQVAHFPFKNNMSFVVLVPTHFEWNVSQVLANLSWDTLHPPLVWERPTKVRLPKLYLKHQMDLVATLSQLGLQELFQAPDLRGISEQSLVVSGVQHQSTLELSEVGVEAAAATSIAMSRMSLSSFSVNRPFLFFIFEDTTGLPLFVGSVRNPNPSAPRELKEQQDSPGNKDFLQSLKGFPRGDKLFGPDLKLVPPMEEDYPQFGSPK
Conditions: literature value, Anonick et al. 1990; cited from earlier work.

Series [4] in a line: Amidolytic activity, steady-state kinetics with substrate S-2251. The class given is biochemical. Conditions: S-2251, PBS buffer, pH 7.4, 25° C.; for kcat: delta-plasmin corrected for percent active sites.
The subject of series [5] is retracted whole human blood clots. The series is described as follows: In vitro model of catheter-assisted thrombolysis, lysis of retracted whole-blood clots. The conditions noted are these: single 1-ml dose injected into clot, 60 min at 37° C.; delta-plasmin 0.44 mg, plasmin 1.0 mg (equimolar). How it is done: FIG. 11 is a graphic representation of delta-plasmin-induced lysis of retracted whole-blood clots. Each clot (0.8×7 cm) was injected with a 1 ml volume of vehicle (acidified saline, pH 3.6), plasmin (1.0 mg/ml), or delta-plasmin (0.44 mg/ml), and clot dissolution was allowed to proceed at 37° C. for 1 hour.
The thrombolytic efficacy of delta-plasmin was tested in an in vitro model of catheter-assisted thrombolysis (Novokhatny, V. et al., J Thromb Haemost., 1(5):1034-41 (2003), incorporated by reference) using the following experimental protocol.
Fresh whole human blood was collected into 20×0.95 cm glass tubes and allowed to clot spontaneously without additives. Tubes were incubated for 20 hr at 37° C. to allow full retraction. Retracted clots were separated from serum using USA Standard testing sieves D16 with 14 mesh, and their weights were determined. […]
Single 1-ml doses of acidified saline, plasmin, or delta-plasmin were injected into the clot using a syringe. […] After the incubation, the clots were placed again on the sieve to remove the liquefied material and the weight of the digested clots was measured. The extent of clot lysis was determined from the difference between the initial clot weight and the weight of residual clot and was expressed as a percent of clot weight reduction.

Series [6] addresses T3, α2-antiplasmin. The series is described as follows: Rate of inhibition by α2-antiplasmin (method of Wiman and Collen, S-2251 activity at time points). Conditions: 22° C. in PBS buffer, pH 7.4. The series is classed as biochemical. The method, then: as §1

Data on four molecules can be found in patent US8034913B2, “Recombinantly modified plasmin” (Grifols Therapeutics Inc., priority 2004, dated 2011).

Where “and” joins values, the source holds several entries; their conditions need not be identical. Identical values can stand only once. Like-named read-outs stand apart in the source and are kept apart here.

Broadly, the Km is the concentration of substrate that gives half-maximal velocity. Usually kcat stands for the maximal rate divided by the concentration of active sites. Regarding “Plasminogen: human plasminogen, single-chain protein containing 791 amino acid residues”, the Km in the series with urokinase [1] is 1200 nM; with urokinase [2], 1700 nM. For the same molecule, in the series with urokinase [1], the catalytic constant (kcat) is 2.3 ± 0.3 min⁻¹.

B1: plasmin: two-chain, disulfide-linked serine protease from activation of plasminogen (antibody)
heavy: EPLDDYVNTQGASLFSVTKKQLGAGSIEECAAKCEEDEEFTCRAFQYHSKEQQCVIMAENRKSSIIIRMRDVVLFEKKVYLSECKTGNGKNYRGTMSKTKNGITCQKWSSTSPHRPRFSPATHPSEGLEENYCRNPDNDPQGPWCYTTDPEKRYDYCDILECEEECMHCSGENYDGKISKTMSGLECQAWDSQSPHAHGYIPSKFPNKNLKKNYCRNPDRELRPWCFTTDPNKRWELCDIPRCTTPPPSSGPTYQCLKGTGENYRGNVAVTVSGHTCQHWSAQTPHTHNRTPENFPCKNLDENYCRNPDGKRAPWCHTTNSQVRWEYCKIPSCDSSPVSTEQLAPTAPPELTPVVQDCYHGDGQSYRGTSSTTTTGKKCQSWSSMTPHRHQKTPENYPNAGLTMNYCRNPDADKGPWCFTTDPSVRWEYCNLKKCSGTEASVVAPPPVVLLPDVETPSEEDCMFGNGKGYRGKRATTVTGTPCQDWAAQEPHRHSIFTPETNPRAGLEKNYCRNPDGDVGGPWCYTTNPRKLYDYCDVPQCAAPSFDCGKPQVEPKKCPGR
light: VVGGCVAHPHSWPWQVSLRTRFGMHFCGGTLISPEWVLTAAHCLEKSPRPSSYKVILGAHQEVNLEPHVQEIEVSRLFLEPTRKDIALLKLSSPAVITDKVIPACLPSPNYVVADRTECFITGWGETQGTFGAGLLKEAQLPVIENKVCNRYEFLNGRVQSTELCAGHLAGGTDSCQGDSGGPLVCFEKDKYILQGVTSWGLGCARPNKPGVYVRVSRFVTWIEGVMRNN
On to B1, for which the “inhibition rate by α2-macroglobulin” value with α2-macroglobulin is given as 6.5 +/− 0.5 × 10^5 M^−1s^−1. The “inhibition rate by α2-antiplasmin (lit.)” value with α2-antiplasmin [3] is 2.5×10^7 M^−1s^−1 and 2.5 +/− 0.5 × 10^7 M^−1s^−1. Further, in series [4], the Km is 193 µM and the kcat is 760 ± 23 min⁻¹. Also, the kcat in series [4] (listed as full-length plasmin) worked out at 760 ± 23 min⁻¹. This molecule also gave a clot weight reduction in series [5] of 50%.

B2: mini-plasmin: activated mini-plasminogen (Val443-Asn791), fifth kringle and serine protease domain (K5-SP) (protein)
chain 1: VAPPPVVLLPDVETPSEEDCMFGNGKGYRGKRATTVTGTPCQDWAAQEPHRHSIFTPETNPRAGLEKNYCRNPDGDVGGPWCYTTNPRKLYDYCDVPQCAAPSFDCGKPQVEPKKCPGR
chain 2: B1 light
In the case of B2, the “inhibition rate by α2-antiplasmin” value with α2-antiplasmin [6] is 2.4×10^5 M^−1s^−1 and 2.4 +/− 0.5 × 10^5 M^−1s^−1. Further, the “inhibition rate by α2-macroglobulin” value in the series with α2-macroglobulin is on record as 7.5 +/− 0.3 × 10^5 M^−1s^−1. In series [4], the Michaelis-Menten constant (Km) stood at 160 µM and the kcat amounted to 770 ± 70 min⁻¹.

B3: micro-plasmin: plasmin species lacking all five kringles (protein)
chain: APSFDCGKPQVEPKKCPGRVVGGCVAHPHSWPWQVSLRTRFGMHFCGGTLISPEWVLTAAHCLEKSPRPSSYKVILGAHQEVNLEPHVQEIEVSRLFLEPTRKDIALLKLSSPAVITDKVIPACLPSPNYVVADRTECFITGWGETQGTFGAGLLKEAQLPVIENKVCNRYEFLNGRVQSTELCAGHLAGGTDSCQGDSGGPLVCFEKDKYILQGVTSWGLGCARPNKPGVYVRVSRFVTWIEGVMRNN
As for B3, the “inhibition rate by α2-antiplasmin” value with α2-antiplasmin [6] is 1.8×10^5 M^−1s^−1 and 3.1×10^5 M^−1s^−1 and 1.8 +/− 0.2 × 10^5 M^−1s^−1. The “inhibition rate by α2-macroglobulin” value with α2-macroglobulin is 7.8 +/− 0.6 × 10^5 M^−1s^−1. In series [4], the Km amounted to 145 µM and the turnover number (kcat) is 795 ± 24 min⁻¹.
